For series [1], the system named is H_N60 (SEQ ID NO: 3), microbial HemG protoporphyrinogen oxidase. The series is described as follows: PPO enzyme assay (bacterial extract). To be noted: apparent Km for protoporphyrinogen; pH 7.4, 37° C.
For series [2], the system named is Soybean (Glycine max) protoporphyrinogen oxidase (PPO), wild type. The series is described as follows: PPO enzyme assay (plastid extract). Format: biochemical. The note with it: apparent Km for protoporphyrinogen; pH 7.4, 30° C.
Series [3] deals with H_N110 (SEQ ID NO: 10), microbial HemG protoporphyrinogen oxidase. The series is described as follows: PPO enzyme assay (bacterial extract). To be noted: apparent Km for protoporphyrinogen; pH 7.4, 37° C.
The subject of series [4] is Maize (Zea mays) protoporphyrinogen oxidase (PPO), wild type. Description: PPO enzyme assay (plastid extract). Format: biochemical. The note with it: apparent Km for protoporphyrinogen; pH 7.4, 30° C.
Series [5] deals with Waterhemp (Amaranthus tuberculata) protoporphyrinogen oxidase (PPO), wild type. Description: PPO enzyme assay (plastid extract). Format: biochemical. To be noted: apparent Km for protoporphyrinogen; pH 7.4, 30° C.
In series [6] the test system is C=Cc1c2[nH]c(c1C)Cc1[nH]c(c(CCC(=O)O)c1C)Cc1[nH]c(c(C)c1CCC(=O)O)Cc1[nH]c(c(C)c1C=C)C2. The series is described as follows: purified protein, by the assay type. The note with it: other: apparent Km for protoporphyrinogen, pH 7.4, 37° C.
For series [7], the system named is soybean (A3555), non-transgenic or expressing H_N10 (SEQ ID NO:4). Description: R0 soybean sprayed with flumioxazin. To be noted: 210 g/ha, V3, 8 days. Format: in vivo. How it is done:
In soybean, excised embryos (A3555) were transformed with the transformation constructs 1 and 11 using A. tumefaciens and standard methods known in the art. […] Regenerated R0 transgenic plantlets were grown in the greenhouse. […] The herbicide was sprayed at the V3 developmental stage with three fully developed trifoliate leaves and injury ratings were assessed 8 days after treatment. The percentage of plants that were deemed highly tolerant (15% or less injury) was noted.

The test system of a further series is transgenic maize plants. The series is described as follows: R0 transgenic maize 40 g/ha S-3100 spray test. Format: in vivo. From the text: H_N60 (SEQ ID NO:3). […] These five constructs had the same promoter plus leader plus intron combination, with two different targeting peptide (TP) sequences, and the same 3′UTR sequence. Leaf samples were taken from the R0 plants and analyzed by PCR to determine the transgene copy number. Single copy plants for up to 12 unique events per construct were transplanted to pots, selfed and outcrossed to generate R1 and F1 seed, respectively, for future testing. Multi-copy plants and extra single copy plants were sprayed with 40 grams/ha 5-3100 at approximately the V5 growth stage and injury ratings were taken 7 days after treatment. The average percent (%) injury for all plants expressing each PPO enzyme and the number of plants that were deemed highly tolerant (less than 10% injury) was noted, where each plant is a unique single or multi-copy transformant.

A further series deals with R0 soybean plants. The series is described as follows: R0 transgenic soybean herbicide tolerance at eleven weeks. Format: in vivo. The note with it: R0 plants sprayed with S-3100 at eleven weeks, rated seven days after treatment. How it is done: The plantlets in the non-sprayed containers corresponding to constructs having a score of 2 were transplanted at approximately 7 weeks post transformation and grown as R0 plants using standard methods known in the art. Plantlets corresponding to non-tolerant scores of 0 and 1 were also grown to serve as negative controls. The R0 plants were grown in a greenhouse under long-day nursery conditions (18 hr light at 80° F. then 6 hr dark at 74° F.) for approximately four weeks. At eleven weeks, the R0 plants were sprayed with two passes of the same herbicide solution (0.3 g of 5-3100) described above. Herbicide injury ratings were collected seven days after treatment.
The results of the herbicide tolerance application at eleven weeks to the R0 plants confirmed the low percent injury rating scores observed in the high-throughput screen at five weeks. Any injury rating of 30% or above was equivalent to non-transgenic soybean injury ratings. A few of the constructs stood out as providing very good tolerance to the herbicide application. […] Data are provided in Table 10, where n.d. indicates the analysis was not conducted.

A further series relates to soybean plantlets. The series is described as follows: High-throughput soybean screening for herbicide tolerance (plantlets). Format: in vivo, soybean (A3555). Further details: key: 0 for poor tolerance, high damage, low green coloration; 1 for some tolerance, average damage, moderate green coloration; 2 for good tolerance, low damage, high green coloration. To be noted: S-3100 spray five weeks post-transformation, scored day four. From the text: A high-throughput plant transformation and screening method was used to evaluate large numbers of constructs in transgenic plants for herbicide tolerance in early transformation plantlet tissue. This allowed for faster and higher volume screening of construct configurations and PPO enzymes.
This permitted the side-by-side comparison of seven different HemG PPO enzymes with thirty-seven different targeting peptides using the same promoter and 3′UTR elements for gene expression. These plant transformation constructs were used to transform soybean excised embryos (germplasm A3555) using A. tumefaciens and standard methods known in the art. Four hundred explants were inoculated for each construct resulting in twelve containers per construct. A sterile PPO herbicide solution was used for herbicide tolerance testing. The herbicide solution consisted of 0.3 g of S-3100 in crop oil concentrate (5.0 mL) and 495 mL of deionized water. This was filtered through a 0.45 micron Nalgene® Rapid-Flow™ Tissue Culture Filter Unit and Surfactant-Free Cellulose Acetate membrane filter unit (VWR, Radnor, PA, USA). The resulting sterile solution was shaken before application.
At five weeks post-transformation, four of the twelve plant containers per construct were sprayed with two passes of the sterile PPO herbicide solution. The treated plantlets were then enclosed in the container and received at least 15 hours of light exposure post spray each day for four days. At the end of day four post application of S-3100, the treated plantlets were photographed and scored on a visual scale of green coloration (green coloration was representative of healthy photosynthetic plant tissue as compared to photo-bleached tissue) versus damage. The scoring values were 0 for poor tolerance, high damage, low green coloration; 1 for some tolerance, average damage, moderate green coloration; and 2 for good tolerance, low damage, high green coloration. The scoring for each construct is presented in Table 9, where n.d. indicates the analysis was not conducted.

The mark [8] stands for this setting: H_N10 (SEQ ID NO:4), construct 11.
Where [9] appears, read: 40 grams/ha S-3100 at V5, 7 days after treatment, R0 plants.

Take `C=Cc1c2[nH]c(c1C)Cc1[nH]c(c(CCC(=O)O)c1C)Cc1[nH]c(c(C)c1CCC(=O)O)Cc1[nH]c(c(C)c1C=C)C2` [protoporphyrinogen, protoporphyrinogen IX]: the Michaelis constant (Km) in [1] was 1.1 µM; in series [2], 1.8 µM; in series [3], 0.3 µM; in [4], 2 µM; in series [5], 0.7 µM.

Take “H_N50 (SEQ ID NO: 7), microbial HemG protoporphyrinogen oxidase (Shimwellia blattae DSM 4481 = NBRC 105725)”: the Km in [6] is 1.0 µM.

“H_N10 (SEQ ID NO: 4), E. coli wild-type HemG protoporphyrinogen oxidase (Escherichia coli CFT073)”: in series [6], the Km is 0.7 µM.

Consider `C#CCN1C(=O)COc2cc(F)c(N3C(=O)C4=C(CCCC4)C3=O)cc21` [flumioxazin], for which, in [7] (setting [8]), the average injury rating stood at 22% and the “highly tolerant plants (15% or less injury)” value is 9%. Besides, in series [7] (non-transgenic), the average injury rating is given as 30% and the “highly tolerant plants (15% or less injury)” value was “no highly tolerant plants”.

With “H_N30 (SEQ ID NO: 5), microbial HemG protoporphyrinogen oxidase (Winslowiella toletana)”, the Km in series [6] came to 1.0 µM.

For “H_N20 (SEQ ID NO: 2), microbial HemG protoporphyrinogen oxidase (Pantoea ananatis LMG 5342)”, the Km in series [6] is 0.8 µM.

B1: H_N40: microbial HemG protoporphyrinogen oxidase, SEQ ID NO:6 (SEQ ID NO:15 lacking start methionine) (protein, listed as Pectobacterium carotovorum)
chain: MKALIVFSSRDGQTRAIASYIANTLKGTLECDVVNVLNANDIDLSQYDRVAIGASIRYGRFHPAVNQFIRKHLTSLQQLPSAFFSVNLTARKPEKRTIQTNAYTRKFLLNSPWQPDLCCVFAGALRYPRYRWFDRVMIQLIMRITGGETDSTKEIEYTDWQQVARFAQDFAQLAAKNPA
In the case of B1, the “Average Injury” value in the series on transgenic maize plants (setting [9]) turned out to be 47.0%. Also, the “Highly Tolerant (number of plants with less than 10% injury)” value in the series on transgenic maize plants (setting [9]) was found to be 53. Besides, in the series with transgenic maize plants (R0 transgenic maize data), the “injury rates when expressed in transgenic plants (crop tolerance to a PPO herbicide)” value was “reduced injury rates”. Also, the percent injury score with R0 soybean plants (TP1) amounted to 5%; with R0 soybean plants (TP13) it was 15%; in the series on R0 soybean plants (TP14) it was 35%; in the series on R0 soybean plants (TP15) it was 30%; in the series with R0 soybean plants (TP21), 35%; with R0 soybean plants (TP25) it was 15%. For the same molecule, the coloration score in the series on soybean plantlets (TP9) stood at 0; in the series with soybean plantlets (TP11) it was 1; with soybean plantlets (TP12) it was 1; in the series with soybean plantlets (TP13), 1; in the series on soybean plantlets (TP14) it was 2; with soybean plantlets (TP15), 2. For the same molecule, the coloration score came to 1 with soybean plantlets (TP17); 1 in the series with soybean plantlets (TP18); 1 with soybean plantlets (TP19); 2 with soybean plantlets (TP21); 1 with soybean plantlets (TP23); 0 in the series on soybean plantlets (TP24). Further, the coloration score is recorded as 2 in the series on soybean plantlets (TP25); 1 in the series with soybean plantlets (TP26); 1 in the series on soybean plantlets (TP27); 1 with soybean plantlets (TP28); 1 in the series on soybean plantlets (TP29); 1 in the series on soybean plantlets (TP30). Besides, the results for the coloration score in the series on soybean plantlets (TP31), in the series with soybean plantlets (TP32) and with soybean plantlets (TP33) were 1, 1 and 0, respectively.

These data come from patent US12123009B2, “Methods and compositions for PPO herbicide tolerance in plants” (Monsanto Technology LLC, priority 2015, dated 2024).
